Measured values taken from the RNAGym collection of RNA variant scans (doi:10.1073/pnas.2313332121).

B1: TPR t1 (parent)
chain: GACCAAUCUGCCCUCAGAGCUCGAGAACAUCUUCGGAUGCAGAGGAGGCAGGCUUCGGUGGCGCGAUAGCGCCAACGUCCUCAACCUCCAAUGCAUCCCACCACAUGAUGAUGCCUGAAGAGCCUUGGUUUUUUG

Variants of: B1
Assay: polymerase ribozyme fitness, log enrichment relative to wild type (log ratio); higher = more active; in vitro selection for triplet polymerase activity
In short: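 One round of in vitro selection, in triplicate, was applied to PCR-built, transcribed mutant libraries of each subunit of a heterodimeric triplet polymerase ribozyme. The steps were annealing with a biotinylated primer, partner subunit and triplets, incubation frozen at −7 °C, gel excision of extended constructs, streptavidin-bead capture and RT-PCR. Fitness is the logarithm, base 2, of genotype enrichment over wild-type enrichment from inverse-variance-weighted replicate averages of Illumina-sequenced inputs and outputs, keeping genotypes with ≥10 input reads and ≥1 read per output.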

Variant | polymerase ribozyme fitness (log ratio)
U9A C64U A66G | -3.02
U9A C70U U78A | -0.654
U9A C72A A83U U129A | -0.91
U9A C72G | -0.0842
U9A C73U | 0.98
U9A C73U G113A | -0.0138
U9A C80U | 0.294
U9A C85U | 0.475
U9A C86A C98U | -0.22
U9A G10A C40A C70U U78C G110U C123U | -4.89
U9A G10C C73U C102G C114G C115G | -6.5
U9A G10C C79A C101G | -2.55
U9A G10U G44U G60A C89G G127C | -2.63
U9A G17U U78C C82G C86G C124U U125C | -0.551
U9A G19C A41U G63C | -3.34
U9A G19U G42A A46G U78C | -4.66
U9A G23A G25C A43C G51A A68G U106A C123U | -6.69
U9A G35U C72U G77A C124G U126A | -5.65
U9A G36C | 0.19
U9A G36C C101U | -0.0357
U9A G39C C94U | -0.376
U9A G42A C86U C104G G110U | -7.22
U9A G44C C70G | -4.48
U9A G44C C80A U96C | -3.87

Variant | polymerase ribozyme fitness (log ratio)
U9A G45A | -0.107
U9A G47U A50C | -1.68
U9A G47U G63C U130C | 0.0031
U9A G48C C62A G77A C88U U112A | -3.81
U9A G52C C94U C101A | -1.78
U9A G52U C88U C124A | 0.944
U9A G60A C70A C98U C101G C123G | -6.71
U9A G61A | 0.705
U9A G61A A75U U96G A121G U129C G135U | 0.515
U9A G63U U78A G93C C124G G128C | -3.75
U9A G63U U96G G128A | -2.96
U9A G69C | -0.589
U9A G71U C94A C123G | 0.355
U9A G71U C104U | 0.24
U9A G107U G117C | -6.35
U9A G117U | -1.08
U9A G122A | 0.926
U9A G128C | -2.11
U9A U14G C73G G117C | -1.75
U9A U32A A37U A46C C56A A111G | -4.29
U9A U32C G36C | -0.0123
U9A U33G G36U U38G C53G C115G | -7.69
U9A U78C C86A A121C | 2.18
U9A U96G | -0.342

Variant | polymerase ribozyme fitness (log ratio)
U9A U116C | 0.0652
U9C A16U G52U | -0.423
U9C A26G A27U U54A A74G C82G | -6.24
U9C A29U U129A | -2.08
U9C A41C A91C | -1.02
U9C A41C C53G | -0.677
U9C A41C C53G A68G C73U | -5.47
U9C A41C U87C C114U | -0.644
U9C A41G G45U C82U C85G | -4.04
U9C A68G | -2.42
U9C A68G C86A C99A | -6.98
U9C C11U C101A | -0.843
U9C C11U G47C U96G | -3.05
U9C C11U U78C C82G A83U | -0.241
U9C C12G C28U C73U G110C | -1.73
U9C C13A C102U A111C | -0.646
U9C C13G | 0.844
U9C C20A A37G G47A U87G G120A G122U | -3.6
U9C C28G G52U | -3.99
U9C C31A G44A G47U G69U C88U A118U U133G | -4.68
U9C C40G G69A C101U | -2.3
U9C C40G U55A C76A C88G | -4.6
U9C C49A A91C C104U | -1.34
U9C C49A C85U G120C | 1.08

Variant | polymerase ribozyme fitness (log ratio)
U9C C49A C86U C94A G113A | -1.52
U9C C53G A105U | -1.72
U9C C56G C62G | -3.04
U9C C72A A83U A90G U131C | 0.697
U9C C72U C98U G120A | 0.967
U9C C73A C85G | -0.637
U9C C79U | 0.385
U9C C80U A91G | -0.111
U9C C98G | -5.05
U9C C101G C104U U116C | -2.48
U9C G10A | 0.0311
U9C G10A G93A | -0.147
U9C G10C G17A G63A U81C U92A C94U U109G A119G | -7.69
U9C G17A A18G G113U | -4.74
U9C G19A U32A C88U C123A | -5.37
U9C G19U U81C U130C | -3.09
U9C G23U C31U A41G G52A C82G A83C A121C | -6.19
U9C G36A C85U C123A | 0.00121
U9C G39C G128C | -1.84
U9C G39U G48A C53G A91G | -2.06
U9C G47C U132C | -1.22
U9C G57U C114U G128C U130C | -1.68
U9C G58A A100U | -0.581
U9C G60A | 0.405

Variant | polymerase ribozyme fitness (log ratio)
U9C G60A U130A | 0.434
U9C G60U C62U U78G C80A U112C | -1.95
U9C G63U C104U | -0.467
U9C G69A G77A | -2.73
U9C G69C | -0.746
U9C G69U G71U U92A | -3.04
U9C G71A | 0.0862
U9C G113A | -0.364
U9C G117A | 0.892
U9C G120C | 1.46
U9C G122A | -0.428
U9C U14C U33G G51A G69U A118G | -5.88
U9C U32C U59G A121C G122U | 0.733
U9C U38G G61C C101A | -3.61
U9C U78C A83U A90G A121G | 2.5
U9C U78G U81A | -0.22
U9C U92G | -1.58
U9C U112A C114G | 0.928
U9C U112G | 0.223
U9C U130G | -0.0168
U9G A18C C40G A91C G93C C94A A105G | -5.58
U9G A18C C56G C72A G120A U130A | -2.29
U9G A18U C40U | -0.788
U9G A24G | -0.443

Variant | polymerase ribozyme fitness (log ratio)
U9G A26G C70G A84U U112A | -4.4
U9G A26U | -2.33
U9G A26U G39U U78C C82G | -4.7
U9G A27G A37U | -0.779
U9G A27U | -3.6
U9G A29G | -1.35
U9G A29U G39C | -3.86
U9G A37U A43U C73A C98A C124A | -7.17
U9G A37U C40U G45A C72U C104U | -0.789
U9G A43C | -1.01
U9G A43U G52U C72U C82A | -3
U9G A46U U55G A103C | -4.6
U9G A50C | -0.315
U9G A74U | 0.26
U9G A95C | -1.41
U9G A108G | -1.95
U9G C11A C70A U87A | -2.04
U9G C12A U14C G44C G63A G77A G93A | -2.85
U9G C12A U54A G93A | 0.0472
U9G C13U C89A G107A C114U | -1.8
U9G C15G U81A U109G G127C | -5.35
U9G C20A U54C C76U G128C | -5.03
U9G C20A U59A | -3.12
U9G C20U U87G | -0.825

Variant | polymerase ribozyme fitness (log ratio)
U9G C34G A121U | -4.18
U9G C34U A103U | -4.66
U9G C40A G69A C76U C114A | -6.98
U9G C40U C114G G122A C123G | -5.42
U9G C56A A66C C72U | -1.3
U9G C56A C79G | -1.55
U9G C56U C62U C94U U96A | -1.52
U9G C56U C114A C115G | -5.74
U9G C56U G65C A105U U109C | -6.39
U9G C62A | -0.542
U9G C62A U92A C104U | -4.41
U9G C62G C82A | -0.591
U9G C70A | -1.08
U9G C70G | -2.02
U9G C70U U81C G110U | -3.84
U9G C72A A95G | 0.389
U9G C72G C86A | -1.02
U9G C72U C102A G122A U125A | -1.75
U9G C76U | 0.331
U9G C80U C98U G110U | -3.68
U9G C86A C114A | -0.649
U9G C88U G93C | -0.642
U9G C94A | -0.976
